Paper PMC3410435 (Structure (London, England : 1993), 2012)

Biological target: the molecule itself
Experiment: SEC

B1: PdeA(R69A) (enzyme, Caulobacter crescentus, UniProt Q9A310 1-555, looked up)
chain: MSFRTGERRIWDATATLEALGAADVALWIWEPETDRLRLNGAARALGLGPLAPECSSAAFRALALPQDAAQAEEVLKPREPGSEVVARFRVRGGETCLWRGVWLEEGVRAAGVVAPETKFSASELCDLTGLLDRRSFLARARERLAQEGTHQLVVADLDRLRRLNEALGHERADLVLAALGSRLAAAFPAQSILGRIGEDEFAVLCQPLGYEPSDVLRSALEQPLRVAGFDIHPTLSIGAVSAEGGLDAPDAAELLRRAELAVEAAAAAGRGGAAAYGRAMETDGLSRLALEADLRGAIGRGEITPYFQPIVRLSTGALSGFEALARWIHPRRGMLPPDEFLPLIEEMGLMSELGAHMMHAAAQQLSTWRAAHPAMGNLTVSVNLSTGEIDRPGLVADVAETLRVNRLPRGALKLEVTESDIMRDPERAAVILKTLRDAGAGLALDDFGTGFSSLSYLTRLPFDTLKIDRYFVRTMGNNAGSAKIVRSVVKLGQDLDLEVVAEGVENAEMAHALQSLGCDYGQGFGYAPALSPQEAEVYLNEAYVDGAAPVKARG
B1 was tested, and the “stoichiometry N” value was 2.
